Measured values reported in patent US20250051455A1.
pKd: −log10 of the molar value.

How the values were obtained:
[1] = target: modified human HLA-G β2M MHC class I complex (HLA-G specific amino acids replaced by HLA-A consensus amino acids) (human); experiment: SPR, reference antibody against degrafted HLA-G
[2] = target: recombinant soluble human HLA-G β2M MHC class I complex, monomer (human); experiment: SPR, reference antibody against monomeric wt HLA-G
[3] = target: recombinant soluble human HLA-G β2M MHC class I complex, monomer (human); experiment: competition ELISA, one antibody concentration; competitor coated ILT2-Fc
[4] = target: recombinant soluble human HLA-G β2M MHC class I complex, trimer (human); experiment: as above
[5] = target: recombinant soluble human HLA-G β2M MHC class I complex, dimer (human); experiment: as above
[6] = target: human HLA-G expressed on cells (JEG3 natural; SKOV3 HLA-G+ and PA-TU-8902 HLA-G+ transfectants) (human) (UniProt P17693); experiment: flow cytometry, JEG3 cells pre-incubated with antibody (40 µg/ml final); competitor ILT2-Fc chimera
[7] = target: recombinant soluble human HLA-G β2M MHC class I complex, monomer (human); experiment: competition ELISA, one antibody concentration; competitor coated ILT4-Fc
[8] = target: recombinant soluble human HLA-G β2M MHC class I complex, trimer (human); experiment: as above
[9] = target: recombinant soluble human HLA-G β2M MHC class I complex, dimer (human); experiment: as above

MEM-G/11 (antibody) gave a pKd [1] of 7.89, a koff [1] of 0.0012 s⁻¹ and a kon [1] of 89000 M⁻¹ s⁻¹. For the same substance, the t 1/2 [1] was 10 min, the pKd [2] was 7.92 and the koff [2] was 0.00085 s⁻¹. For the same substance, the kon [2] was 74000 M⁻¹ s⁻¹ and the t 1/2 [2] was 14 min.

Work on MEM/G9 (antibody) yielded a % inhibition of ILT2 binding [3] of -442%, a % inhibition of ILT2 binding [4] of 4% and a % inhibition of ILT2 binding [5] of 1%. It also gave a pKd [1] of 6.52, a koff [1] of 0.036 s⁻¹ and a kon [1] of 120000 M⁻¹ s⁻¹. The t 1/2 [1] was 0.3 min, the Inhibition of ILT2 binding to Jeg3 cells [6] was -27.9% and the % inhibition of ILT4 binding [7] was -14%. For the same substance, the % inhibition of ILT4 binding [8] was -40%, the % inhibition of ILT4 binding [9] was -44% and the pKd [2] was 8.11. For the same substance, the koff [2] was 0.0011 s⁻¹, the kon [2] was 150000 M⁻¹ s⁻¹ and the t 1/2 [2] was 10 min.

G233 (antibody) gave a % inhibition of ILT2 binding [3] of 12%, a % inhibition of ILT2 binding [4] of 3% and a % inhibition of ILT2 binding [5] of -132%. For the same substance, the Inhibition of ILT2 binding to Jeg3 cells [6] was -55.8%, the % inhibition of ILT4 binding [7] was -898% and the % inhibition of ILT4 binding [8] was 58%. The % inhibition of ILT4 binding [9] was -20%, the pKd [2] was 7.70 and the koff [2] was 0.0037 s⁻¹. For the same substance, the kon [2] was 180000 M⁻¹ s⁻¹ and the t 1/2 [2] was 3 min.
